# Numbered stars: 1 amine (or outer) side, 2 acyl side, 3 side chain; on linkers, the order of the positions; unused ones are H or OH. Square brackets hold non-standard residues; d marks the D form. Side chains are listed from the residue outwards. Ends that are not written are not given here. * marks the point of attachment. C18 diacid = O=C(O)CCCCCCCCCCCCCCCCC(=O)*; αMePhe(2-F) = C[C@](N)(Cc1ccccc1F)C(=O)O; γGlu = O=C(O)[C@H](CCC(=O)[*:2])N[*:1]; αMeL = CC(C)C[C@](C)(N)C(=O)O; AEEA = NCCOCCOCC(=O)O; Aib = CC(C)(N)C(=O)O
# Molecular target: T1, human gastric inhibitory peptide receptor (hGIPR) (Homo sapiens, UniProt P48546)
# T1 construct: expressed in transfected cells; host or cells: HEK293
# T1 sequence (P48546 22-466): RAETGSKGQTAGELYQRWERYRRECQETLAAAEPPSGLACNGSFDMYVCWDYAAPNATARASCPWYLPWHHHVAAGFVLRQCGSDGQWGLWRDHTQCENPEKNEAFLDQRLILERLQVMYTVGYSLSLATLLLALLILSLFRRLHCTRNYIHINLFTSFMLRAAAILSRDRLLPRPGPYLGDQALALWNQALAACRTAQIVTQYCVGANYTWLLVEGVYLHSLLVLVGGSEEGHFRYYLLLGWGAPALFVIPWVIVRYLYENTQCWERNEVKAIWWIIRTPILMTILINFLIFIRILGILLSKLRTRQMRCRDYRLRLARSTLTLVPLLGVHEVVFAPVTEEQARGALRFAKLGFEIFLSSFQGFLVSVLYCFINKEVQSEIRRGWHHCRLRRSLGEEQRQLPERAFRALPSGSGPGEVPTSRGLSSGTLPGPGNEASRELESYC
# Test: cAMP pharmacological functional assay in presence of 0.1% casein, hGIPR
# Assay type: cell-based
# Details: ratio of hGIPR to hGLP1R cAMP EC50 ratios
# Procedure: Each receptor over-expressing cell line (20 μl) is treated with the test peptide in DMEM (Gibco Cat #31053) supplemented with 0.1% Casein (Sigma Cat #C4765), 250 μM IBMX, 1× GlutaMAX™ (Gibco Cat #35050), and 20 mM HEPES (HyClone Cat #SH30237.01) in a 20 μl assay volume. […] EC50 is the concentration of compound causing half-maximal simulation in a dose response curve. A relative EC50 value is derived by non-linear regression analysis using the percent maximal response vs. the concentration of peptide added, fitted to a four-parameter logistic equation.
# Intracellular cAMP levels are determined by extrapolation using a standard curve. Dose response curves of compounds are plotted as the percentage of stimulation normalized to minimum (buffer only) and maximum (maximum concentration of each control ligand) values and analyzed using a four parameter non-linear regression fit with a variable slope (Genedata Screener 13). EC50 is the concentration of compound causing half-maximal simulation in a dose response curve.
# EC50 is the concentration of compound causing half-maximal simulation in a dose response curve.
row,Substance,[hGIPR/hGLP1R] EC50 Ratio
1,"Y-Aib-EGT-αMeF(2F)-TSD-4Pal-SI-αMeL-LDKK((2-[2-(2-Amino-ethoxy)-ethoxy]-acetyl)-(γGlu)-(2-[2-(2-Amino-ethoxy)-ethoxy]-acetyl)-CO—(CH2)18—CO2H)AQ-Aib-EFI-(D-Glu)-YLIEGGPSSGAPPPS-NH2 (YXEGTXTSDXSIXLDKKAQXEFIXYLIEGGPSSGAPPPS; Aib, αMeF(2F), 4Pal, αMeL, D-Glu; lipidated K; amide; (2)..(2) Xaa at position 2 is Aib; (6)..(6) Xaa at position 6 is alpha-methyl-Phe(2F); (10)..(10) Xaa at position 10 is 4Pal; (13)..(13) Xaa at position 13 is alpha-methyl-Leu; MOD_RES (17)..(17) Lys at position 17 is chemically modified by conjugation of the epsilon-amino group of the Lys side chain with (2-[2-(2-Amino-ethoxy)-ethoxy]-acetyl)-(gamma-Glu)-(2-[2-(2-Amino- ethoxy)-ethoxy]-acetyl)-CO) [Peptide 202]",6.73
2,"Y-Aib-EGT-αMeF(2F)-TSD-cTA-SI-αMeL-LDEK((2-[2-(2-Amino-ethoxy)-ethoxy]-acetyl)2-(γGlu)-CO—(CH2)18—CO2H)AQ-Aib-EFIEYLIEGGPSSGAPPPS-NH2 (YXEGTXTSDXSIXLDEKAQXEFIEYLIEGGPSSGAPPPS; Aib, cTA, αMeF(2F), αMeL; acylated lysine C20 diacid; amide; (2)..(2) Xaa at position 2 is Aib; (6)..(6) Xaa at position 6 is alpha-methyl-Phe(2F); (10)..(10) Xaa at position 10 is cTA; (13)..(13) Xaa at position 13 is alpha-methyl-Leu; MOD_RES (17)..(17) Lys at position 17 is chemically modified by conjugation of the epsilon-amino group of the Lys side chain with (2-[2-(2-amino-ethoxy)-ethoxy]-acetyl)2-(gamma-Glu)-CO-(CH2)18- CO2H; (20)..(20) Xaa at positi) [Peptide 155]",5.97
3,"Y-Aib-EGT-αMeF(2F)-TSDASI-αMeL-LD-Orn-K((2-[2-(2-Amino-ethoxy)-ethoxy]-acetyl)2-(γGlu)-CO—(CH2)16—CO2H)AQ-Aib-AFI-(D-Glu)-αMeY-LIEGGPSSGAPPPS-NH2 (YXEGTXTSDASIXLDXKAQXAFIXXLIEGGPSSGAPPPS; Aib, Orn, αMe residues, lipidated Lys, D-Glu, amide; (2)..(2) Xaa at position 2 is Aib; (6)..(6) Xaa at position 6 is alpha-methyl-Phe(2F); (13)..(13) Xaa at position 13 is alpha-methyl-Leu; (16)..(16) Xaa at position 16 is Orn; MOD_RES (17)..(17) Lys at position 17 is chemically modified by conjugation of the epsilon-amino group of the Lys side chain with (2-[2-(2-amino-ethoxy)-ethoxy]-acetyl)2-(gamma-Glu)-CO-(CH2)16- CO2H; (20)..(20) Xaa at positi) [Peptide 246]",2.48
4,"Y-Aib-EGT-αMeF(2F)-TSDHSI-αMeL-LD-Dab-K((2-[2-(2-Amino-ethoxy)-ethoxy]-acetyl)2-(γGlu)-CO—(CH2)18—CO2H)AQ-Aib-TFI-(D-Glu)-YLIEGGPSSGAPPPS-NH2 (YXEGTXTSDHSIXLDXKAQXTFIXYLIEGGPSSGAPPPS; Aib, αMeF(2F), αMeL, Dab, D-Glu; lipidated K; amide; (2)..(2) Xaa at position 2 is Aib; (6)..(6) Xaa at position 6 is alpha-methyl-Phe(2F); (13)..(13) Xaa at position 13 is alpha-methyl-Leu; (16)..(16) Xaa at position 16 is Dab; MOD_RES (17)..(17) Lys at position 17 is chemically modified by conjugation of the epsilon-amino group of the Lys side chain with (2-[2-(2-amino-ethoxy)-ethoxy]-acetyl)2-(gamma-Glu)-CO-(CH2)18- CO2H; (20)..(20) Xaa at positi) [Peptide 172]",2.63
5,"Y-Aib-EGT-αMeF(2F)-TSDHSI-αMeL-LD-Dap-K((2-[2-(2-Amino-ethoxy)-ethoxy]-acetyl)2-(γGlu)-CO—(CH2)18—CO2H)AQ-Aib-TFI-(D-Glu)-YLIEGGPSSGAPPPS-NH2 (YXEGTXTSDHSIXLDXKAQXTFIXYLIEGGPSSGAPPPS; Aib, αMeF(2F), αMeL, Dap, D-Glu; lipidated K; amide; (2)..(2) Xaa at position 2 is Aib; (6)..(6) Xaa at position 6 is alpha-methyl-Phe(2F); (13)..(13) Xaa at position 13 is alpha-methyl-Leu; (16)..(16) Xaa at position 16 is Dap; MOD_RES (17)..(17) Lys at position 17 is chemically modified by conjugation of the epsilon-amino group of the Lys side chain with (2-[2-(2-amino-ethoxy)-ethoxy]-acetyl)2-(gamma-Glu)-CO-(CH2)18- CO2H; (20)..(20) Xaa at positi) [Peptide 173]",4.80
6,"Y-Aib-EGT-αMeF(2F)-TSDHSI-αMeL-LD-Orn-K((2-[2-(2-Amino-ethoxy)-ethoxy]-acetyl)2-(γGlu)-CO—(CH2)18—CO2H)AQ-Aib-TFI-(D-Glu)-YLIEGGPSSGAPPPS-NH2 (YXEGTXTSDHSIXLDXKAQXTFIXYLIEGGPSSGAPPPS; Aib, αMeF(2F), αMeL, Orn, D-Glu; lipidated K; amide; (2)..(2) Xaa at position 2 is Aib; (6)..(6) Xaa at position 6 is alpha-methyl-Phe(2F); (13)..(13) Xaa at position 13 is alpha-methyl-Leu; (16)..(16) Xaa at position 16 is Orn; MOD_RES (17)..(17) Lys at position 17 is chemically modified by conjugation of the epsilon-amino group of the Lys side chain with (2-[2-(2-amino-ethoxy)-ethoxy]-acetyl)2-(gamma-Glu)-CO-(CH2)18- CO2H; (20)..(20) Xaa at positi) [Peptide 171]",7.73
7,"Y-Aib-EGT-αMeF(2F)-TSDHSI-αMeL-LDEK((2-[2-(2-Amino-ethoxy)-ethoxy]-acetyl)2-(γGlu)-CO—(CH2)14—CO2H)AQ-Aib-HFI-(D-Glu)-YLIEGGPSSGAPPPS-NH2 (YXEGTXTSDHSIXLDEKAQXHFIXYLIEGGPSSGAPPPS; Aib, αMeF(2F), αMeL, D-Glu; C16 diacid lipidated K; amide; (2)..(2) Xaa at position 2 is Aib; (6)..(6) Xaa at position 6 is alpha-methyl-Phe(2F); (13)..(13) Xaa at position 13 is alpha-methyl-Leu; MOD_RES (17)..(17) Lys at position 17 is chemically modified by conjugation of the epsilon-amino group of the Lys side chain with (2-[2-(2-amino-ethoxy)-ethoxy]-acetyl)2-(gamma-Glu)-CO-(CH2)14- CO2H; (20)..(20) Xaa at position 20 is Aib; (24)..(24) Xaa at positi) [Peptide 178]",9.77
8,Y-Aib-EGT-αMeF(2F)-TSDHSI-αMeL-LDEK((2-[2-(2-Amino-ethoxy)-ethoxy]-acetyl)2-(γGlu)-CO—(CH2)16—CO2H)AQ-Aib-HFI-(D-Glu)-YLIEGG-NH2 (Y[Aib]EGT[αMePhe(2-F)]TSDHSI[αMeL]LDEK([AEEA-AEEA-γGlu-C18 diacid])AQ[Aib]HFI[dE]YLIEGG-NH2; N-terminus assumed; SMILES CC[C@H](C)[C@H](NC(=O)[C@H](CC(C)C)NC(=O)[C@H](Cc1ccc(O)cc1)NC(=O)[C@@H](CCC(=O)O)NC(=O)[C@@H](NC(=O)[C@H](Cc1ccccc1)NC(=O)[C@H](Cc1c[nH]cn1)NC(=O)C(C)(C)NC(=O)[C@H](CCC(N)=O)NC(=O)[C@H](C)NC(=O)[C@H](CCCCNC(=O)COCCOCCNC(=O)COCCOCCNC(=O)CC[C@H](NC(=O)CCCCCCCCCCCCCCCCC(=O)O)C(=O)O)NC(=O)[C@H](CCC(=O)O)NC(=O)[C@H](CC(=O)O)NC(=O)[C@H](CC(C)C)NC(=O)[C@](C)(CC(C)C)NC(=O)[C@@H](NC(=O)[C@H](CO)NC(=O)[C@H](Cc1c[nH]cn1)NC(=O)[C@H](CC(=O)O)NC(=O)[C@H](CO)NC(=O)[C@@H](NC(=O)[C@](C)(Cc1ccccc1F)NC(=O)[C@@H](NC(=O)CNC(=O)[C@H](CCC(=O)O)NC(=O)C(C)(C)NC(=O)[C@@H](N)Cc1ccc(O)cc1)[C@@H](C)O)[C@@H](C)O)[C@@H](C)CC)[C@@H](C)CC)C(=O)N[C@@H](CCC(=O)O)C(=O)NCC(=O)NCC(N)=O) [Peptide 180],6.27
